Experimental data reported in article PMC11903750.

Experiments:
[1] = biological target: 30S ribosomal subunit (E. coli) (UniProt P0A7R9); experiment: FRET or BRET; as a4, with 5 µM edeine
[2] = biological target: 30S ribosomal subunit (E. coli) (UniProt P0A7R9); experiment: FRET or BRET; as a4, with 5 µM GE81112

fold reduction of koff with edeine against no antibiotic [1]: 4 fold | fold reduction of koff with GE81112 against no antibiotic [2]: 2 fold
Substance: IF3 E166C, double-labelled (IF3DL) (from UniProt P0A707 1-180) (natural protein)
